Values quoted from earlier work as cited in PMC4212800.

Target: CD4 D1-D2 (Homo sapiens) (UniProt P01730)

- Kd: 0.0825 nM
Substance: Ibalizumab
